# Experimental data published in the RNAGym collection of RNA variant scans (doi:10.1073/pnas.2313332121).
# Variants at the floor of the assay were thinned out.
# B1: TPR 5TU (parent)
# chain: GGAUCUUCUCGAUCUAACAAAAAAGACAAAUCUGCCACAAAGCUUGAGAGCAUCUUCGGAUGCAGAGGCGGCAGCCUUCGGUGGCGCGAUAGCGCCAACGUUCUCAACUAUGACACGCAAAACGCGUGCUCCGUUGAAUGGAGUUUAUCAUG
# Variants of: B1
# Test: polymerase ribozyme fitness, log enrichment relative to wild type (log ratio); higher = more active; in vitro selection for triplet polymerase activity
# Summary of the method: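 For each subunit of a heterodimeric triplet polymerase ribozyme, a mutant library was built by PCR and transcribed, then taken through a single in vitro selection round in triplicate. Selection involved annealing to a biotinylated primer, the partner subunit and triplets, incubation frozen at −7 °C, gel excision of extended constructs, capture on streptavidin beads and RT-PCR. Genotypes were retained after Illumina sequencing of inputs and outputs only with ≥10 input reads and ≥1 read in each output. Fitness is defined as the logarithm of a genotype's enrichment relative to wild-type enrichment, using inverse-variance-weighted averages across replicates, with the logarithm taken to base 2.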
row,Variant,polymerase ribozyme fitness (log ratio)
1,G11U C14G G34U G84U C125G C149G,≤ -4.2
2,C38G A89C C93A C95G U109C,≤ -4.2
3,C96G U102G,-3.26
4,U4C G58U C75A A91U U104G U144A C149U,≤ -4.2
5,U31G A37C G126U,-2.65
6,A17G A23U U55G A66C,≤ -4.2
7,G81A U148C,-1.48
8,A66G G68C U102A,≤ -4.2
9,U31A A52G G84U,-0.528
10,C8G C125U G141C,≤ -4.2
11,A73U C93U G136A,-1.59
12,C85U G117A,0.212
13,U33G G83A G88U G136C,≤ -4.2
14,C54U C96U C118U,-0.868
15,A39U U61C C96A,-3.93
16,U13A A73G G84A,-0.387
17,C10U C32U G68U G74A U78A G92A C125A G140U U145G,≤ -4.2
18,A47G G81C G92C C95A A142G,-2.95
19,C14A G86C,-3.85
20,G92U U101A A119U G143U,-3.62
21,G46A U53A G59A A66C U90C A91U C108G G133C,≤ -4.2

row,Variant,polymerase ribozyme fitness (log ratio)
1,G50C G59C C95G,-3.67
2,G59A G88C,-3.73
3,U31A A66U G86U G100C,≤ -4.2
4,G34A G58A U90A G94A U109G,≤ -4.2
5,U6C U13G C43G C76U U90A U151G,≤ -4.2
6,C18U C38G A40G U61A G81C C96A C116G A119U,≤ -4.2
7,A40G G67U C85A A98U U144C U145A,≤ -4.2
8,A22C A26C A49C U56A G59U G68U C85U G86U G94U A97G U134A,≤ -4.2
9,G50U A66C C69U A73C,≤ -4.2
10,A52G C75A G84U A110U,≤ -4.2
11,G80C G86U,-3.37
12,G71A G94A,-2.94
13,U6G U78G C93U A98G A142C,-3.99
14,A23G A39U A47C U53G G86C A106G,≤ -4.2
15,G50A G65A C85U,-3.49
16,A19C G34A C57U G86C C96U A98U,-3.16
17,C38G C43U G81U G86U A98G C103G A150G U151C,≤ -4.2
18,G117C A120G,0.308
19,U82G G84A U145C,-0.385
20,G92U C123A,-0.758
21,G50A U55A C95A,-1.86

row,Variant,polymerase ribozyme fitness (log ratio)
1,G86U U104A G117C,-2.37
2,A17G A29C C32G G48C,≤ -4.2
3,U9A U15C C35U G71A C72U U77G C87A A119U G124C,≤ -4.2
4,C57U A142C,-0.377
5,A17G A20C A24C U44C A66U C103U U134G,≤ -4.2
6,U53G U56A G94C A115C C123G,-3.89
7,A22C G59C G83A A89C,-1.16
8,C79A U139C A142G U148A,≤ -4.2
9,C32G C57U C95U A142C U144G,≤ -4.2
10,A3C A16U C54A C87U U104G G141C,≤ -4.2
11,C18U A41C C72U C93G U104G,≤ -4.2
12,C85U,-0.513
13,G92U,-0.671
14,A98G G124C,-0.819
15,U9G C36U C76A G94A,≤ -4.2
16,A20C A23U C27A G58U C72A A89G C99A A107C,≤ -4.2
17,U146A,-0.305
18,A20C G62A G86U,-2.06
19,C96U U148A,-3.33
20,A20U C38U C75A C87G A107U C132U,≤ -4.2
21,A37C G48A C51U G86C G88A,≤ -4.2

row,Variant,polymerase ribozyme fitness (log ratio)
1,A19C C54U,-0.474
2,C36A G50C U53A U56A C93U A115U,≤ -4.2
3,C43U G62A A119U U134A,≤ -4.2
4,G50C C85U,-2.99
5,C10U A23U U90G,≤ -4.2
6,C14G C18U A52G G81U G92A C131G,≤ -4.2
7,A21U A30G C57U A91U U104A G126A,≤ -4.2
8,C75U G128A,-3.95
9,C14A C35U C57U G59C U134A,-4.18
10,A29C C57A G68A G88C C114U G117C A122G,≤ -4.2
11,C96A U135C,-1.91
12,U4G A20C C85U,-0.147
13,C14U C18A A28U C54A A91G U148G,≤ -4.2
14,A3G C32G C35U A49C G50C C85A C103U C118G,≤ -4.2
15,A17C A37C C93G,-2.89
16,A20C C76A A119U,-1
17,U33G G50A C63G G94A C95G C116U,≤ -4.2
18,G11A A64G G88U U101G C103G U146G,≤ -4.2
19,A28C U56A C57A G68A C76A G88U G94A A138C,≤ -4.2
20,A41C C103A,-1.44
